From patent publication US20030027246A1, “Immunogenic peptides derived from prostate-specific membrane antigen (PSMA) and uses thereof” (priority 2000, published 2003) come the findings set out here.

The test deals with membrane-bound HLA-A0201 molecule on T2 cells (human). The test can be described thus: T2 cell HLA-A0201 stabilisation at 125.0 µM peptide, BB7.2 staining, flow cytometry. To be noted: remark: other sources report otherwise. A general note: In flow cytometry, cells or beads pass a laser one at a time.

On to VLAGGFFLL [CLP-328], for which the Fluorescence Index (FI) was 1.3 FI.

For the molecule ELAHYDVLL [CLP-330], the Fluorescence Index (FI) stood at 0.7 FI.
